Results on 14 sequences are retold here after the supplement of paper PMC12764529.

± gives the half width of the 95% confidence interval.

Series [1] in a line: folding stability dG unfold (combined trypsin and chymotrypsin); higher = more stable. An outline of the steps:
(§1)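 Unfolding free energy was derived, per protease or combined, against a sequence-predicted unfolded-state K50 and a shared folded-state K50, starting from K50 inferred by Bayesian fitting of sequencing counts. Digestion with trypsin and chymotrypsin was carried out on designed mini-proteins under 80 residues without cysteine in a PA-tagged cDNA display construct. Only designs with AlphaFold2 dimer inter-PAE above 15 were kept.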

Series [2] in a line: folding stability dG unfold from trypsin proteolysis; higher = more stable. An outline of the steps:
as §1

A short description of series [3]: folding stability dG unfold from chymotrypsin proteolysis; higher = more stable. A digest of the protocol:
as §1

Take “SAGMDVKELAKEAMEKYPPGDKEIEFEIPVGPRPFKVKIDYEPDPENGKPRPKITIENPDNGKKTEFTFSAG [r5_236_TrROS]”: the “folding stability dG unfold” value in series [1] is 0.11 ± 0.17 kcal/mol; in series [2], -1.07 ± 0.74 kcal/mol; in series [3], 0.61 ± 0.19 kcal/mol.

In the case of “SAGMEATIEIVGHPGDKEAIAVLRPEDKTVVIYKNKDGSYTVEVFEPNPARLIERKELPLEEAIKEALSAGG [r19_188_TrMRF]”, the “folding stability dG unfold” value was 0.987 ± 0.13 kcal/mol in series [1], -0.343 ± 0.12 kcal/mol in series [2] and 1.45 ± 0.064 kcal/mol in series [3].

Consider “SAGMELELELEFRLEDGLEVRIRVKVRFDPETGELVIEEVRIEVRPLPPPPPLVLTDEELEALGLEPEESAG [r5_393_TrROS_Hall]”, for which the “folding stability dG unfold” value in series [1] amounted to 3.6 ± 0.16 kcal/mol; in series [2], 3.6 ± 0.23 kcal/mol; in series [3], 3.32 ± 0.13 kcal/mol.

“SAGMELKVEIVAPKEVLLEKVKELEATIKKAFPKVKVEVEAKIEPLEGDEWKATVVIKIEPLPEDEPAESAG [r5_936_TrMRF]”: the results for the “folding stability dG unfold” value in series [1], in series [2] and in series [3] were 3.91 ± 0.78 kcal/mol, 3.87 ± 0.27 kcal/mol and 3.59 ± 0.18 kcal/mol, respectively.

Take “SAGMGSDVPVLTAVLSVLNPETGEEVTIEVPGRNDYGEGKLIRPVSPEDLLAAALAVADALLKDPSLKASAG [r5_426_TrMRF]”: the “folding stability dG unfold” value was determined as 0.804 ± 0.11 kcal/mol in series [1], 1.36 ± 0.036 kcal/mol in series [2] and 0.24 ± 0.22 kcal/mol in series [3].

“SAGMIDVVVRVRLDVRPETVAEELRRRFPAIRRIEPVRVERRVEREPGRRYLLVHLRIELGDVPPELLRSAG [r5_326_TrMRF]”: the “folding stability dG unfold” value in series [1] is 3.33 ± 0.063 kcal/mol; in series [2], 1.78 ± 0.032 kcal/mol; in series [3], 3.714 ± 0.021 kcal/mol.

For “SAGMIEITVEVPAEDMTEEELKELAEELARALREAGLPEDVKIVDVRVERLPDGTVRVTIKIEVKPPPSAGG [r19_87_TrROS_Hall]”, the figures for the “folding stability dG unfold” value in series [1], in series [2] and in series [3] were 4.36 ± 0.39 kcal/mol, 4.24 ± 0.26 kcal/mol and 3.59 ± 0.44 kcal/mol, respectively.

Regarding “SAGMILTIRPEDGSEEIIPVPKEDIEKLIEDLEKKGIKVLSMTTSPDGVSTIPTQYPDGKKMTITVHLDSAG [r5_645_JUSTAS]”, the “folding stability dG unfold” value in series [1] amounted to 0.677 ± 0.16 kcal/mol; in series [2] it was 0.707 ± 0.098 kcal/mol; in series [3], 0.677 ± 0.22 kcal/mol.

As for “SAGMITLPTRGPEELIERLRAIAEELGLSEEDIEQFLRDLAEHATIEQDGDLLLITFQPPVPALPGEPESAG [r5_717_TrMRF]”, the entries for the “folding stability dG unfold” value in series [1], in series [2] and in series [3] were 1.74 ± 0.17 kcal/mol, 1.23 ± 0.071 kcal/mol and 1.91 ± 0.037 kcal/mol, respectively.

Turning to “SAGMITVPLPDGSVLELTVEKETVTTEVDPSTGKKRLVTETLMTNTGDLAVNGKVSPTTATLTTVVLESAGG [r19_246_JUSTAS]”, the “folding stability dG unfold” value is 0.155 ± 0.069 kcal/mol in series [1], -0.36 ± 0.067 kcal/mol in series [2] and 0.373 ± 0.045 kcal/mol in series [3].

Regarding “SAGMKAYIVSVEKNEDGTETIKLKVYFLDKNGKVVETKEITIKKGETIKITFPNGKTITVPAKDLKLVKSAG [r5_137_TrROS_Hall]”, the “folding stability dG unfold” value in series [1] was determined as 3.24 ± 0.082 kcal/mol; in series [2], 2.02 ± 0.083 kcal/mol; in series [3], 3.703 ± 0.033 kcal/mol.

Consider “SAGMKAYNIKELKIEKIEKKGNKIKIKISGKGKFYFKTFSNGSAIIYIKKTNKAYYIDSNGKIVYIKDTSAG [r5_348_TrMRF]”, for which the “folding stability dG unfold” value was 1.76 ± 0.27 kcal/mol in series [1], 1.75 ± 0.12 kcal/mol in series [2] and 1.56 ± 0.13 kcal/mol in series [3].

Take “SAGMKIEIEAEYDPESGTVTLHIKEEPEPGEPVEVKFPIKFLKDKVEIEAETEEPLDPEEILKKIKEELSAG [r5_478_TrMRF]”: the “folding stability dG unfold” value in series [1] was 0.513 ± 0.2 kcal/mol; in series [2], -0.161 ± 0.14 kcal/mol; in series [3] it was 0.835 ± 0.12 kcal/mol.

For “SAGMKIEVKRLPGPGDYLFTLVDPELAARLKAVYPGLEEVIFPVGGPDSVPEEEIKERAEKELKELLLSAGG [r19_298_JUSTAS]”, the “folding stability dG unfold” value in series [1] is -0.268 ± 0.31 kcal/mol; in series [2], -0.0847 ± 0.17 kcal/mol; in series [3] it was -0.66 ± 0.64 kcal/mol.
